Target: T1, GAL4 DBD-hRARγ (human, UniProt P13631 1-454)
T1 sequence (looked up): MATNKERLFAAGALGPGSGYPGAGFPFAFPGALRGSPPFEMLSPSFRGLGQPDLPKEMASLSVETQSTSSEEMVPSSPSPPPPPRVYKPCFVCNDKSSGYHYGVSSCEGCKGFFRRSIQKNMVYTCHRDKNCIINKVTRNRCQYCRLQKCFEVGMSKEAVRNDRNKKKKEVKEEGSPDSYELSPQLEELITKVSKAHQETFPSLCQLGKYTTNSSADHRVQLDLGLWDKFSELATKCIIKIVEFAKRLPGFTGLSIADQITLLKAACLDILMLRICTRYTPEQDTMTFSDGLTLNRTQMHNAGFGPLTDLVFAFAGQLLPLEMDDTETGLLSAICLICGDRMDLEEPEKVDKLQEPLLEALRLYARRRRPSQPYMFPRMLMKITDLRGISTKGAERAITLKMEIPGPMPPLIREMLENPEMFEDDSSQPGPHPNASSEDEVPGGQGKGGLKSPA
Assay: two-hybrid

B1: GAL4 AD-hADA3 (pACT2) (natural protein, human, UniProt O75528-1 1-432, looked up)
chain: MSELKDCPLQFHDFKSVDHLKVCPRYTAVLARSEDDGIGIEELDTLQLELETLLSSASRRLRVLEAETQILTDWQDKKGDRRFLKLGRDHELGAPPKHGKPKKQKLEGKAGHGPGPGPGRPKSKNLQPKIQEYEFTDDPIDVPRIPKNDAPNRFWASVEPYCADITSEEVRTLEELLKPPEDEAEHYKIPPLGKHYSQRWAQEDLLEEQKDGARAAAVADKKKGLMGPLTELDTKDVDALLKKSEAQHEQPEDGCPFGALTQRLLQALVEENIISPMEDSPIPDMSGKESGADGASTSPRNQNKPFSVPHTKSLESRIKEELIAQGLLESEDRPAEDSEDEVLAELRKRQAELKALSAHNRTKKHDLLRLAKEEVSRQELRQRVRMADNEVMDAFRKIMAARQKKRTPTKKEKDQAWKTLKERESILKLLDG
fold interaction relative to RARα: 3 fold

From PMC2938230 (Nucleic Acids Research, 2010)
